Assay [1] deals with T1, rat MAG-Fc fusion protein (R&D systems; 538-MG) (rat; human, UniProt P07722 20-516).
T1 construct: Bought reagent; not shown: human Fc
T1 sequence (looked up): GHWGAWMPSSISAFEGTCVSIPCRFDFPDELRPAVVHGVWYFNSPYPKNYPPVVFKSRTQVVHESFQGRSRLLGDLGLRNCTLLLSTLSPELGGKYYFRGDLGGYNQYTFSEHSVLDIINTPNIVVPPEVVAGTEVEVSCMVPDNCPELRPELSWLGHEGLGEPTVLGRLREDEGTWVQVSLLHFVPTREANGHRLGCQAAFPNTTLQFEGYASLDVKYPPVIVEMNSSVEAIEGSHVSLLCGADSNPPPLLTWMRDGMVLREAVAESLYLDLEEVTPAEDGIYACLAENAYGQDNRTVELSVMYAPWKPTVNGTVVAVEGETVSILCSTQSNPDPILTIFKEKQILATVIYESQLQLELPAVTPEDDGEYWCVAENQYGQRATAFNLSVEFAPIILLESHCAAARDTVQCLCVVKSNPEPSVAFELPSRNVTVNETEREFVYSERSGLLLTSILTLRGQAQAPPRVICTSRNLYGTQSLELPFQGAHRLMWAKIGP
Kind of assay: direct binding ELISA on coated rat MAG-Fc (FIG. 6). On the procedure:
(§1) 96-well Nunc Maxisorp plates were coated overnight at 4° C. with rat MAG-Fc fusion protein (2.5 μg/ml; R&D Systems; Cat.No. 538-MG) in PBS. Plates were washed twice with PBS containing Tween20 (0.1% v/v; PBST) and blocked with PBS containing BSA (1% w/v) for 1 h at room temperature (RT). Purified humanised antibody was adjusted to a starting concentration of 5 μg/ml in blocking buffer and then serial diluted. Antibody samples were incubated 1 h at RT and plates then washed 3× with PBST. Secondary antibody (Goat anti-human light chain specific-peroxidase conjugate; Sigma A-7164) was added diluted 1/5000 in blocking buffer and incubated for 1 h at RT. Wells were washed three times as above and binding detected by adding substrate (OPD tablets dissolved according to instructions; Sigma P-9187). Colour development was monitored and the reaction stopped using 3M H₂SO₄. Colour development was read at 490 nm.
(An ELISA detects its analyte on a solid surface through an enzyme-linked reagent.)

Assay [2] addresses T1, rat MAG-Fc fusion protein (R&D systems; …). The experiment in a line: direct binding ELISA on coated rat MAG-Fc, purified antibody. On the procedure:
as §1

Residue numbers refer to the chain shown, from its start.

B1: Humanised anti-MAG antibody BVh1/CVl1 (antibody, V domains shown)
VH: QVQLVQSGSELKKPGASVKVSCKASGYTFTNYGMNWVRQAPGQGLEWMGWINTYTGEPTYADDFTGRFVFSLDTSVSTAYLQISSLKAEDTAVYYCARNPINYYGINYEGYVMDYWGQGTLVTVSS
VL: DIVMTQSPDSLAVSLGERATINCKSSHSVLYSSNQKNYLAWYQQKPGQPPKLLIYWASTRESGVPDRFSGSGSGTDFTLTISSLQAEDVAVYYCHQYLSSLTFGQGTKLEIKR
notes: also called BVh1/CVI1
For B1, the binding result in assay [1] was “binds”.

B2: Humanised anti-MAG antibody BVh3/CVl3 (antibody, IgG1, V domains shown)
VH: B1 VH with V93T, Y95F
VL: DIVMTQSPDSLAVSLGERATINCKSSHSVLYSSNQKNYLAWYQQKPGQPPKLLIYWASTRESGVPDRFSGSGSGTDFTLTISSLHTEDVAVYYCHQYLSSLTFGQGTKLEIKR
notes: also called BVh3/CVI3
In the case of B2, the binding result in assay [2] is listed as “binds”.

(Values after patent US20070269427A1 (GlaxoSmithKline, published 2007).)
